Measured values as given in the supplement of paper PMC11246515.
± gives the standard deviation of the averaged measurements.

Test: total protein half-life in vivo (active degradation + dilution); higher = more stable protein
[1] = E. coli NCM3722 delta-clpP delta-lon delta-hslV, growth: N-lim chemostat, doubling time 6 h
[2] = E. coli NCM3722 delta-clpP, growth: N-lim chemostat, doubling time 6 h
[3] = E. coli NCM3722 delta-hslV, growth: N-lim chemostat, doubling time 6 h
[4] = E. coli NCM3722 delta-lon, growth: N-lim chemostat, doubling time 6 h
[5] = E. coli NCM3722 delta-smpB, growth: N-lim chemostat, doubling time 6 h
[6] = wild type E. coli NCM3722, growth: C-lim chemostat, doubling time 3 h
[7] = wild type E. coli NCM3722, growth: C-lim chemostat, doubling time 6 h
[8] = wild type E. coli NCM3722, growth: C-lim chemostat, doubling time 12 h
[9] = wild type E. coli NCM3722, growth: N-lim chemostat, doubling time 6 h
[10] = wild type E. coli NCM3722, growth: N-lim chemostat, doubling time 12 h
[11] = wild type E. coli NCM3722, growth: P-lim chemostat, doubling time 6 h
[12] = wild type E. coli NCM3722, growth: P-lim chemostat, doubling time 12 h

Sequence: MSVIKMTDLDLAGKRVFIRADLNVPVKDGKVTSDARIRASLPTIELALKQGAKVMVTSHLGRPTEGEYNEEFSLLPVVNYLKDKLSNPVRLVKDYLDGVDVAEGELVVLENVRFNKGEKKDDETLSKKYAALCDVFVMDAFGTAHRAQASTHGIGKFADVACAGPLLAAELDALGKALKEPARPMVAIVGGSKVSTKLTVLDSLSKIADQLIVGGGIANTFIAAQGHDVGKSLYEADLVDEAKRLLTTCNIPVPSDVRVATEFSETAPATLKSVNDVKADEQILDIGDASAQELAEILKNAKTILWNGPVGVFEFPNFRKGTEIVANAIADSEAFSIAGGGDTLAAIDLFGIADKISYISTGGGAFLEFVEGKVLPAVAMLEERAKK [P0A799]
- total protein half-life in vivo [1]: 5.45 ± 0.47 h
- total protein half-life in vivo [2]: 5.27 ± 0.49 h
- total protein half-life in vivo [3]: 4.91 ± 0.11 h
- total protein half-life in vivo [4]: 5.68 ± 0.45 h
- total protein half-life in vivo [5]: 4.66 ± 0.14 h
- total protein half-life in vivo [6]: 3.28 ± 0.049 h
- total protein half-life in vivo [7]: 6.24 ± 0.46 h
- total protein half-life in vivo [8]: 12.8 ± 0.99 h
- total protein half-life in vivo [9]: 4.92 ± 0.11 h
- total protein half-life in vivo [10]: 8.6 ± 0.45 h
- total protein half-life in vivo [11]: 5.69 ± 0.4 h
- total protein half-life in vivo [12]: 12 ± 0.29 h

Sequence: MSVLQVLHIPDERLRKVAKPVEEVNAEIQRIVDDMFETMYAEEGIGLAATQVDIHQRIIVIDVSENRDERLVLINPELLEKSGETGIEEGCLSIPEQRALVPRAEKVKIRALDRDGKPFELEADGLLAICIQHEMDHLVGKLFMDYLSPLKQQRIRQKVEKLDRLKARA [P0A6K3]
- total protein half-life in vivo [1]: 5.89 ± 0.28 h
- total protein half-life in vivo [2]: 4.94 ± 1.4 h
- total protein half-life in vivo [3]: 3.19 ± 0.11 h
- total protein half-life in vivo [4]: 3.686 ± 0.032 h
- total protein half-life in vivo [5]: 2.84 ± 0.43 h
- total protein half-life in vivo [6]: 2.6 ± 0.4 h
- total protein half-life in vivo [7]: 3.936 ± 0.014 h
- total protein half-life in vivo [8]: 6.33 ± 0.35 h
- total protein half-life in vivo [9]: 3.12 ± 0.3 h
- total protein half-life in vivo [10]: 4.58 ± 0.57 h
- total protein half-life in vivo [11]: 4.29 h
- total protein half-life in vivo [12]: 8.94 ± 0.6 h

Sequence: MSVPLILTILAGAATFIGAFLGVLGQKPSNRLLAFSLGFAAGIMLLISLMEMLPAALAAEGMSPVLGYGMFIFGLLGYFGLDRMLPHAHPQDLMQKSVQPLPKSIKRTAILLTLGISLHNFPEGIATFVTASSNLELGFGIALAVALHNIPEGLAVAGPVYAATGSKRTAILWAGISGLAEILGGVLAWLILGSMISPVVMAAIMAAVAGIMVALSVDELMPLAKEIDPNNNPSYGVLCGMSVMGFSLVLLQTAGIG [P0A8H3]
- total protein half-life in vivo [1]: 1.91 h
- total protein half-life in vivo [2]: 1.38 h
- total protein half-life in vivo [3]: 1.59 ± 0.2 h
- total protein half-life in vivo [4]: 2.14 ± 0.3 h
- total protein half-life in vivo [5]: 1.65 ± 0.083 h
- total protein half-life in vivo [6]: 0.41 h
- total protein half-life in vivo [7]: 0.83 h
- total protein half-life in vivo [9]: 1.7 h
- total protein half-life in vivo [10]: 2.45 h

Sequence: MSVPVQHPMYIDGQFVTWRGDAWIDVVNPATEAVISRIPDGQAEDARKAIDAAERAQPEWEALPAIERASWLRKISAGIRERASEISALIVEEGGKIQQLAEVEVAFTADYIDYMAEWARRYEGEIIQSDRPGENILLFKRALGVTTGILPWNFPFFLIARKMAPALLTGNTIVIKPSEFTPNNAIAFAKIVDEIGLPRGVFNLVLGRGETVGQELAGNPKVAMVSMTGSVSAGEKIMATAAKNITKVCLELGGKAPAIVMDDADLELAVKAIVDSRVINSGQVCNCAERVYVQKGIYDQFVNRLGEAMQAVQFGNPAERNDIAMGPLINAAALERVEQKVARAVEEGARVAFGGKAVEGKGYYYPPTLLLDVRQEMSIMHEETFGPVLPVVAFDTLEDAISMANDSDYGLTSSIYTQNLNVAMKAIKGLKFGETYINRENFEAMQGFHAGWRKSGIGGADGKHGLHEYLQTQVVYLQS
- total protein half-life in vivo [1]: 4.75 ± 0.26 h
- total protein half-life in vivo [2]: 4.93 ± 1 h
- total protein half-life in vivo [3]: 3.81 ± 0.14 h
- total protein half-life in vivo [4]: 4.56 ± 0.062 h
- total protein half-life in vivo [5]: 4.55 ± 0.52 h
- total protein half-life in vivo [6]: 3.19 ± 0.26 h
- total protein half-life in vivo [7]: 5.86 ± 0.33 h
- total protein half-life in vivo [8]: 10.24 ± 0.092 h
- total protein half-life in vivo [9]: 4.82 ± 1.6 h
- total protein half-life in vivo [10]: 5.01 ± 1.9 h
- total protein half-life in vivo [11]: 5.871 ± 0.049 h
- total protein half-life in vivo [12]: 11.3 ± 0.13 h

Sequence: MSVRLVLAKGREKSLLRRHPWVFSGAVARMEGKASLGETIDIVDHQGKWLARGAYSPASQIRARVWTFDPSESIDIAFFSRRLQQAQKWRDWLAQKDGLDSYRLIAGESDGLPGITIDRFGNFLVLQLLSAGAEYQRAALISALQTLYPECSIYDRSDVAVRKKEGMELTQGPVTGELPPALLPIEEHGMKLLVDIQHGHKTGYYLDQRDSRLATRRYVENKRVLNCFSYTGGFAVSALMGGCSQVVSVDTSQEALDIARQNVELNKLDLSKAEFVRDDVFKLLRTYRDRGEKFDVIVMDPPKFVENKSQLMGACRGYKDINMLAIQLLNEGGILLTFSCSGLMTSDLFQKIIADAAIDAGRDVQFIEQFRQAADHPVIATYPEGLYLKGFACRVM
- total protein half-life in vivo [1]: 5.39 ± 0.22 h
- total protein half-life in vivo [2]: 5.51 ± 0.19 h
- total protein half-life in vivo [3]: 5.55 ± 0.16 h
- total protein half-life in vivo [4]: 6.51 ± 0.56 h
- total protein half-life in vivo [5]: 5.25 ± 0.27 h
- total protein half-life in vivo [6]: 3.02 ± 0.1 h
- total protein half-life in vivo [7]: 6.57 ± 0.19 h
- total protein half-life in vivo [8]: 11.32 ± 0.082 h
- total protein half-life in vivo [9]: 6.03 ± 0.6 h
- total protein half-life in vivo [10]: 11.3 ± 1.5 h
- total protein half-life in vivo [11]: 6.28 ± 1.2 h
- total protein half-life in vivo [12]: 13.1 ± 1.7 h

Sequence: MSVSAFNRRWAAVILEALTRHGVRHICIAPGSRSTPLTLAAAENSAFIHHTHFDERGLGHLALGLAKVSKQPVAVIVTSGTAVANLYPALIEAGLTGEKLILLTADRPPELIDCGANQAIRQPGMFASHPTHSISLPRPTQDIPARWLVSTIDHALGTLHAGGVHINCPFAEPLYGEMDDTGLSWQQRLGDWWQDDKPWLREAPRLESEKQRDWFFWRQKRGVVVAGRMSAEEGKKVALWAQTLGWPLIGDVLSQTGQPLPCADLWLGNAKATSELQQAQIVVQLGSSLTGKRLLQWQASCEPEEYWIVDDIEGRLDPAHHRGRRLIANIADWLELHPAEKRQPWCVEIPRLAEQAMQAVIARRDAFGEAQLAHRICDYLPEQGQLFVGNSLVVRLIDALSQLPAGYPVYSNRGASGIDGLLSTAAGVQRASGKPTLAIVGDLSALYDLNALALLRQVSAPLVLIVVNNNGGQIFSLLPTPQSERERFYLMPQNVHFEHAAAMFELKYHRPQNWQELETAFADAWRTPTTTVIEMVVNDTDGAQTLQQLLAQVSHL
- total protein half-life in vivo [1]: 6.1 ± 0.64 h
- total protein half-life in vivo [2]: 5.37 ± 0.1 h
- total protein half-life in vivo [3]: 5.38 ± 0.24 h
- total protein half-life in vivo [5]: 5.01 ± 0.12 h
- total protein half-life in vivo [6]: 3.27 ± 0.59 h
- total protein half-life in vivo [7]: 6.66 ± 0.06 h
- total protein half-life in vivo [8]: 12.2 ± 1.8 h
- total protein half-life in vivo [9]: 5.89 ± 0.76 h
- total protein half-life in vivo [10]: 12.3 ± 1.8 h
- total protein half-life in vivo [11]: 6.81 ± 0.65 h
